Results published in patent publication US20090036382A1, “TGF-Beta Modulators and Use Thereof” (Universita' Degli Studi Di Padova, priority 2006, published 2009).

Experiments:
mature TGF-β1 = assay: CAGA12-lux luciferase reporter in HEK293T cells treated with recombinant TGF-β1; assay type: cell-based; conditions: 5 ng/ml recombinant TGF-β1, expression vector 500 ng, FIG. 2B
Protocol: (§1) To verify how emilin or the EMI domain can contrast TGF-β1 activity independently from receptor binding, HEK293T cells were transfected with a construct coding luciferase placed under control of a TGF-β activated promoter: CAGA12-lux (Jonk et al., 1998) alone or in combination with a emilin1 expression vector (500 ng) as shown in FIG. 2B. After transfection, cells were treated (black bar) or not treated (white bar) with 5 ng/ml recombinant TGF-1 (lanes 1 and 2). Column bars from 3 to 6 report luciferase expression values in experiments with cells co-transfected with the expression vector for emilin1 (or EMI-domain or emilin1ΔEMI) alone (white bars) or in combination with the vector encoding pro TGF-β1 (black bars). Values show the mean±st. dev.

pro TGF-β1 processing = target: T1, pro TGF-β1 processing (Homo sapiens, UniProt P01137); assay: Western blot of pro TGF-β1 conversion to LAP and mature TGF-β1 in transfected HEK293T cells; assay type: cell-based; conditions: HEK293T cotransfected; cell extracts anti-LAP, supernatants anti-TGF-β1; FIG. 4D
T1 construct: Flag; expressed in transfected cells; host or cells: HEK293T (A6); mouse embryo fibroblasts (A8)
T1 sequence (P01137 30-390): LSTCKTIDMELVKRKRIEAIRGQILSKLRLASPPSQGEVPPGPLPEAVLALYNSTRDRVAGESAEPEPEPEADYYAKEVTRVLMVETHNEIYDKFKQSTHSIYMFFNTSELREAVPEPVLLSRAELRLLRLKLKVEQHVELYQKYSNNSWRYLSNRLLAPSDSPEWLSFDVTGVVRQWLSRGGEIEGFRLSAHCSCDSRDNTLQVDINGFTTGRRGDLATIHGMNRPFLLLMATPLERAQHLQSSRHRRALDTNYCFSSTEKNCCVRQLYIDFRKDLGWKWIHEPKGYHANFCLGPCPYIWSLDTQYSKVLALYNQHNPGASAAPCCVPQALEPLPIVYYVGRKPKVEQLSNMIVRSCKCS
From the text: (§2) • The construct for emilin 1 expression was engineered in pCS2 vector (Rupp R. A. et al., 1994, Genes Dev 8, 1311-1323) (for a physical map of the vector, see the site faculty.washington.edu/rtmoon/pcs2+.html) as described (Zanetti M. et al., 2004, Mol Cell Biol 24, 638-650); the vector used for proTGF-β expression in MEF and HEK293T cells is pCDNA3.1 (Invitrogen). Vectors containing the coding sequence for human pro TGF-β are described in Young and Murphy-Ullrich, 2004 (Young and Murphy-Ullrich, 2004, J Biol Chem 279, 38032-38039). The human pro TGF-β cDNA sequence is reported in the data bank (NP_000660; protein 000651). • The vector for Furin/SPC 1 expression is pCDNA3.1 (Invitrogen) • p15 and CAGA 12 promoter fragments are described in Jonk L. J. et al., 1998, J Biol Chem 273, 21145-21152 […]. • Constructs containing Flag sequences are described in Young G. D and Murphy-Ullrich J E, 2004, J Biol Chem 279, 38032-38039. • Constructs containing the Flag epitope (e.g. Flag-EMI-domain-GPI) were prepared as described in Chubet R G et al. Biotechniques 1996; 20(1):136-141 and detected by anti-Flag antibody (Kodak Inc.). • Constructs containing the GPI anchor were prepared as described in the Manual “Current Protocols in Cell Biology” Howard R. Petty Wayne State University, Detroit, Mich.; Juan S. Bonifacino, Mary Dasso, Joe B. Harford, Jennifer Lippincott-Schwartz, and Kenneth M. Yamada (eds.), Copyright C 2003 John Wiley & Sons, Inc. (GPI-anchor). In the construct Flag-EMI domain-GPI, the Flag sequence was inserted at the N-terminus after the signal peptide, while the GPI-anchor sequence was placed at the COOH-terminal end. • The construct emilin 1-KDEL was obtained by inserting the KDEL coding sequence described by Munro S., and Pelham, H. R., 1987, Cell 48, 899-907 upstream the emilin 1 STOP codon. • The construct containing the type II TGF-β receptor with HA epitope was described in Wrana J. L. et al., 1994, Nature 370, 341-347. • supplier of the drugs used: SP600125 (Calbiochem), SB431542 (Tocris). • Purified recombinant LAP and TGF-β1 proteins were purchased from (R&D Systems)
To verify whether emilin or its EMI domain inhibit TGF-β or its precursor, HEK293T cells were cotransfected with plasmids driving the expression of pro TGF-β1 (fused to the FLAG-domain, even though the antibody used were directed at LAP and TGF-β proteins) and emilin-1 (or EMI-domain). […] The anti-Flag antibody used was obtained from Kodak Inc; for the preparation of Flag constructs, see Younjg and Murphy-Ullrich (Young and Murphy-Ullrich, 2004).
As reported in the summary scheme above FIG. 5A, HEK293T cells were transfected with the plasmid encoding pro TGF-β1 (lane 1) and cotransfected with emilin-1 (lane 3) or treated with decanoyl-RVKR-CMK peptide (Decanoyl-Arg-Val-Lys-Arg-chloromethylketone, Alexis Corporation, Lausen, Switzerland) (lane 2) at a concentration of 100 μM. The peptide is an irreversible and competitive inhibitor of furin proprotein convertase and of other SPC family members (Proprotein Convertase); in addition, it inhibits pro-MMP2 dependent furin activation. The supernatant was then loaded on SDS-PAGE and detected by Western-blot with anti-TGF-β1 antibody. […] An increase of the precursor band in lanes 2 and 3 is […] to the decrease of TGF-β. Therefore it can be concluded that this assay detects an effect of emilin-1 on TGF-β1 processing that is similar to the effect of Furin inhibitors.

pro TGF-β1 = assay: CAGA12-lux luciferase reporter in HEK293T cells co-transfected with pro TGF-β1 vector; assay type: cell-based, human; conditions: CAGA12-lux, co-transfection with pro TGF-β1 vector, FIG. 2B, 2C
From the text: as §2, §1
As further validation of the above observations, HEK293T cells were cotransfected with expression plasmids carrying the cDNAs shown in the summary scheme above the figure, along with CAGA12-lux and CMV-lacZ constructs, and luciferase expression levels were measured.

Furin/SPC 1 = target: T2, Furin/SPC 1 (Homo sapiens, UniProt P09958); assay: Western blot (anti-LAP) of pro TGF-β1 cleavage in HEK293T cells co-transfected with Furin/SPC 1; assay type: cell-based; conditions: HEK293T cell extracts, FIG. 5B
T2 construct: expressed in transfected cells; host or cells: HEK293T
T2 sequence (P09958 108-794): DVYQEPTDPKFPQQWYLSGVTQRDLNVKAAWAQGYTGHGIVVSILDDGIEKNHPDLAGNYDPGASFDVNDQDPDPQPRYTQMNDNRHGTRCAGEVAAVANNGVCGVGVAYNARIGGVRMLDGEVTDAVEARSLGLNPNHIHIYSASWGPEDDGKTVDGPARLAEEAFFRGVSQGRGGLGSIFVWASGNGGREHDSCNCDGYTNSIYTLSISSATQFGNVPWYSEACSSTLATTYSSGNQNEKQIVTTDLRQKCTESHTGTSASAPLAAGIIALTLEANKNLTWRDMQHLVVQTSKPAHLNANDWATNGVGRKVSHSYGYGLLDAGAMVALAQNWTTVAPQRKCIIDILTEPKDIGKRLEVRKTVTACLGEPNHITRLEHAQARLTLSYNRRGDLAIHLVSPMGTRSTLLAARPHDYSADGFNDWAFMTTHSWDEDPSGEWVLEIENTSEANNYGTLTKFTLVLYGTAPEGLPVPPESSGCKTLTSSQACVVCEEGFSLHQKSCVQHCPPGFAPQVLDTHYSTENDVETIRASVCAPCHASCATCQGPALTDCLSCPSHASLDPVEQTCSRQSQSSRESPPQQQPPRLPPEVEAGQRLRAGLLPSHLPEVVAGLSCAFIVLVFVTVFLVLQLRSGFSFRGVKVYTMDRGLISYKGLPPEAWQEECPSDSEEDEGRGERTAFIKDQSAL
From the text: To further investigate the role of emilin-1 on TGF-β processing, HEK293T cells were transfected with plasmids encoding pro TGF-β1, Furin/SPC 1 and EMI-domain, as shown in the scheme above FIG. 5B. Cell extracts were loaded on SDS-PAGE and detected by Western-blot with anti-LAP antibody.

B1: EMI domain: cysteine-rich domain of emilin-1, residues 55-131, SEQ ID NO 2; in some experiments Flag-tagged and GPI-anchored (protein)
chain: RHRNWCAYVVTRTVSCVLEDGVETYVKYQPCAWGQPQCPQSIMYRRFLRPRYRVAYKTVTDMEWRCCQGYGGDDCAE
modifications: sometimes Flag tag and GPI anchor; homo sapiens
notes: in some experiments Flag-tagged and GPI-anchored
Mature TGF-β1
  Effect on luciferase expression induced by mature TGF-β: does not antagonize mature TGF-β
Pro TGF-β1 processing
  Conversion of pro TGF-β1 to LAP and mature TGF-β1 (band intensity): inhibit the conversion of pro TGF-β1
Pro TGF-β1
  Effect on luciferase expression induced by pro TGF-β1: inhibits pro TGF-β
Furin/SPC 1
  Furin-induced proteolytic cleavage product of pro TGF-β1: blocks the effect of Furin
